From the domain aggregation screens of Martell et al. (2025)

Assay: soluble fraction after stress (log2 fold change); higher = more stays soluble; pooled small domains, quantitative proteomics
Conditions: stress: pH 4
How it was run: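 Aggregation propensity is read out as the fold change in how much of each domain remains soluble after acid stress. The custom small-domain libraries were pooled, held at pH 4 and analysed with high-throughput quantitative proteomics. On the log2 scale used, higher values mean more of the domain stayed soluble.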

Sequence | soluble fraction (log2)
HMDKIYVYTTRGQVIELPRGSTAIDFAYKIQTDIGNMIIAAIVNDKLVDANYVLHNKDRVKIVTS | -0.725
HMIHEQSLHKIRNFIGSLPESLRTAFTLREQDGLSYEEIGKITNTPIGTVRSRIYRARESILDHINQE | -0.2
HMKEEDYEVFMRLINVRGIGPKSALNILGVISGQEMIQAIENDDIKRLKSLPGIGAKTAGQIVLDLKGKFV | -0.705
HMGKGGVAYLLESEFGIELPKDMQREFGPIANDIVDSLGREVSGAELKSMFWKEYIERETPFLLLLVTGQL | -0.762
HMQAKDVEVPDYVGKSFVSIKENNPNDFKFEVKSEYDESKEMGVILDQEPKGGSMKVKSGSTITVTV | 0.0655
HMDPTVEENKLNPRDLLIIQRVKEGRTNKEIAEELNVAEITVKKQLSSLYQRYKVHNRNQLLLALD | 0.245
HMADPRFHSEIMLSKIESLLSGKADSDVSNYSIQGRSLTKMSLQELMDARESYDGLVKSEKAKLDAKY | -0.218
HMGYTPGVVIQKSAILEEINQPDLALGMMLEAVKKDSQNLDILNRLVTLLIDQKKNEDAEIYNKKIIT | 0.187
HMVLAEPLSERELDILRLLAAGDSNKEIAAVLYITEGTVKNHVTNILGKLDARDRTQAALRARELGL | -0.373
HMSTQYKTGHYKTTDALNLRASYSTSSNVLLTIPKGKTIVVTRVHNNEWGQVEYNGKTGWIYLEYTAYTES | -0.387
HMDRTLTYTVSIEESDLRADQFLSRRGFSSHLLTRLRKNMEHLLINGTPSRTNTHLHEGDILTVHIVEE | -0.249
HMHLNVYRDEDEAMLAFKDHLIGTHQPIRVRVEKALPDGTMGHKIVDTTIGRIVFNHNIPQD | 0.0727
HMATIGVGSKVTLTTYVDWVGNGLLKTRDFYFVSELNGKRAVLRADSMNGAIYAAVNIDNLRI | -0.103
HMLKDININVTGLDQISNAKLINNLNLLKMNNLFFLDEKKIKKILNSNNLIEKFFIFKKYPSTLDIKVYKT | 0.22
HMSRMGDSIKSLRSRNNMSQDALAEKLNVTRQAISNWENSKTQPDADTLKNLGIIFNVTVDEIINNDF | -0.587
HMHPEITLHPVRANIYSISVKNATSMEIYSVSGQLVGIRELKEGTNTLDLTGYINGVYIVNLQNKAFKLVK | -0.465
HMNIYIEFGRRLAFIRQNSKLSQSQIAQKLNIAQSTYAGYEKGVRKIPLEIIVQLSKILNISPTILILG | -0.618
HMTPPPTNSREWMEWGISHGLDANLDRSGQVVFYTDDRVVADAAELSGADLERDNMGQFVIYTGAYDKG | -0.743
HMFINTVELGRAIKRRREELGLSLRDVADVTNVSASTLSRIENGTGKPDADNIARLTGWLDMPIDRVM | 0.164
HMNTDIHRLLDEAFVRVDMTPDAQHLKEEIRANLVARVDELEASGVPSADAARRAIAELGDVRELL | -0.671
HMAPEPFIVQITASSLNVRKGPGTSYAVAQTVSKGQVFTIVQQQGGWGKLKSGAGWISLKYTAR | -0.0269
HMQQVIEGLDSDRDFITVPEAIALFAVGRQTLYHYIRSGKIPSVNLGQRLTRLSKKQLGELFPLR | -0.287
HMDHVEDRMVLEVVLKKLTEEERRIVMLHAVSGLKHREIAKALDIPLSTVLSKYKRTLKKLEAYLMEME | -0.936
HMNDILETISNQIRDLRVSKKITQQELAERTNLSVPYISQIENGHRNISLETFIKIVDALDIPLSDFFLP | -1.11
HMVVSDKIAFSSFLKSVEDGRVVEVEITGNDIRGILSDGTVFNTYAPNDPNLVEKLTSKGVNITALPKE | 0.0738

Sequence | soluble fraction (log2)
HMKPEDIALLEEIRDLLKEKKSVIVNLEYVNKDVARRIVDFISGGVFALNGHIQKVSNSIFLVAPMN | -0.26
HMARGATELPYSQLLDRVEAGEITTATTQGNTLLSTARDGKRYITYLPLDTMDEVVPRLDAANVEVKTER | -0.123
HMEKAYVWTDTRTFDVQNYIGKKKSEVKNDQYGFEFLGEGDYVIDQLPRVGEQIEEGQKVKIMLGNQQEI | 0.117
HMIRTGEVVTGKVINVKEDQIILNIGFKSDGIITRNEYTNDNSLDLRTVVHEGDEIEAKVLKVNDGEGQVV | 0.12
HMDTIAEFIAELTPLEQKVFHVYYEKGQSLKDTAQQAEITSTSARGALDRIRAKGRHFHLAVILFIG | -1.22
HMGAGLLEPEPLKIEIQETQERLQKLQKALERDTETADSKERIKRAIEAHKARISQLQGLIE | 0.0704
HMKGVSFEEIERAVRTAQNPEADETAQQHAGMVFSRMEGNELFDKLVQSSSTIGKKITGLMDYYL | -0.378
HMLSLDDAAFERYDLTMREREVLLLLLNRLTYEEIAERLFISTNTVKTHVGNVYKKTGVSSRKELVSK | -0.953
HMTALSIGTVVRFTGDRHYISSTGDTGYPASPGLAKITSINPGSKHPYHLIHIDNTSNVYGWVNKQDIIT | ≥ 0.43
HMQRGRTFSIVLNWKGRLLSTQMFFPQFTRPTKEQVTFEINKVYPGAMVYYYNPIEKDPSQPLV | 0.0658
HMIQRLNVNTEVLSTYIRNSNTPIEYLRQKLPNIDKFLKGELEPTFNQVYALSKLINIPTGLLLLKEPIS | 0.359
HMQPGDRVDALIVGVSGEHVFLDVGGKSEGVMAAAELRNEAGELSAAEGDRVQVYLLSNRNGELIFTA | -0.283
HMAKSDLNYLDFKSKLEAGEIAKASVIRNEDTFKVTLQNGEVYNVTSPDYEDFRKELLEAGVDIQVSK | 0.022
HMQAALEVQASAGVLAPVPPDQRQALLDTLAQDPRPGYQHEAGRVYGFPFGGFEVRFTVSDGLLTVLSAYK | -1.16
HMVNAVKFAIEKMPYKYSSLLTLKYVMGYSGKEIAEITGLSETNVRQQLLKGRKLLESMLEE | -0.105
HMQPPVDGNEIMEIFGIKGSPVIGVIKSTIKNAILDGIIAPNDREAALELMFRIADENGLKPVVTQTQ | -0.855
HMGNNTEITYSEFIRQAEAGNVQYVTVDGEKLLISATDGKSYYTINPRDDQMTDRLLNSGVEIRAEPQ | -0.482
HMLRTEYLTVNYAKASEVAELVTASGFLSSRGSITVDERTNTLLLQDTATNIDEVRFMLEQLD | -0.868
HMTNKSKQRRNEILRASQELFNKKGFHDTSINDIMRRVGAAKGVFYYYFETKDQILDTLIEQHIA | -0.471
HMYKLTTQRRAILDVIIENHDKHLNPEEIYDIVKEKYPEIGIATVYRTLQLLEKLNIIYRLNFDDGYNRYE | -1.12
HMSEIYVDDINRKILYLLSQGIKTKSLLEHIPLSMSGIEKRKKQLKMLFSVEDGKDETLLEMAKEKGF | -1.07
HMEQLNKNIKFDNFLESLNFINKVSEVAEEENHHPDLKFGWGYADITIFTHAIKGLSEGDFVLAAKIDVI | -0.295
HMKLSNELLNAIMLIKKGIRNPTSLAQRLNTDTQYAKNLLEHLKMTGLINEHSRLTSRGLDIFHQK | -0.295
HMEARNDWAQQSRADAEFGGEKLDENLAVAKKAVEALASPELKTLLEQSGLGNHPEIIRLFYRAGRSLS | -0.122
HMELSPVDLGERLKIARETANFTQDAAAKAVGIARTTLVSIEKGQRTARLDEIQALSRFYGVSANALLR | 0.0374

Sequence | soluble fraction (log2)
HMKVRVFIERSNDGYSAYMPDDNNLPFGLTGDGKTAQEAMQDFLLARDEMKEFFIEEGKEFPEVEFDFS | -1.49
HMLTRSASREELDQLLKRLRQNLKQKNFFWPPDKEKSLVLYLENLFSKFPLNSSDIRFLHGIIRTLSEK | -0.114
HMQELGVISEGKYNIELNMVSWNDREPKYDIRSWAPDHSRMGKGISLTEEEMERLVELWNTRNE | -0.802
HMFDEVKDAARRLAALLDQAGGTLTLNDKSAPEEVAALTGMSKKVFKRALGHLMSRSEVVVADGRITKKD | -0.196
HMALEGTLARVSVRIPESGVGEIIFSLGGVRRSEAARSVSGRAIPRGTEVVILSYERGIATVQPYEELLTN | -0.256
HMIPKIIDITDLNEEVREVIEEYMKRKRVEKYHIYQDSKGQIFIISGSAIIRYDSKLNNLYYL | -0.395
HMSESKYKMIKNWIKSKILDGTLVPNQKIYSESELMEIFDVSRHTVRLAIGELVSEGYLFKRQGTGTFVTQ | -0.763
HMQNEKLSYFVTETIVTERADLFITKKFPQFSRSQIQKLINSGNITINSNPIKASTEIINKDNIEITIPV | -0.814
HMKYSQAMIAQIIKHFHLPNNTVVTGEDVDAILLRSVDGGDGIYGGDVVSIWKYYKKQNDIQEIVT | -0.764
HMRLEYLVDVEEISIKEYLMLLGLSRRLARKIKLYGKMYINHQEAFNYHLVKKGDLLTIEFDE | -2.21
HMGADPTTWPEIDAFVGRVAVTATGLFPSGQVEIDGRRFEARLAFGVAEPGARVVVRRRTDFGLLVEKETR | -0.531
HMEKLLTTRQSQIFELAKRKGYWNIPREISITQLAQLTGSSKSTISVMLHAIESKIVDTFYDEI | -0.216
HMNAMFEKVLAAVMGFIGVSAFAKNADGKSEMTSDQEKRLTDKWGSKFVEEFKNDLLEYEKNGNAAEDAV | -0.332
HMGSAIAHAIASLPDRYRELLLLKYDTGYSEKEIAQLLGMTEANVKKTIQRAKAKLQTLLDEMEA | -0.354
HMENDYTQAQFVQDLDSGVVREVIIIPNREAPTGYARVVFGDVVRELYATDIREVEALAREHGYEPTVED | -0.499
HMLFQQPATMIGKIGVAMSDLRPSGKIKIDDEWYDGQSEGDYILKGQEIIVVQVMNAYLIVRL | -0.44
HMTQSPLHWSHRPIDLSELLTYLDRDGAFVYASGHKAPFTEVVRGFEHLLNIRLGDPRDVKRSVLQR | -0.282
HMRIQLNFSDQLLDDVMSEALKHIDRKSQEHHIEKQMDDEFMLVYIDARLIIQVIVNIINNAIKY | -0.912
HMKTRQVTVRNGRIEIFDKRFSTERLVFTAANLPVLEREGEVFTAGIPDSRDFINLWARDGSFAGSVPRV | -1.51
HMTPVTYELTVQSGAGQRIDKYLSEQLADLTRSYLQKLLKDGGVTVNGKTVKSNYKLSENDQIFLEVPDA | 0.0962
HMGIYFIIAAKNQENNIEEFIRTTLFRIVYGKEESINNITLVDLKSKDNTKNIMEEIARENENVKV | -0.696
HMDKDTFGEFENVKLTEEEYNKLVEKLGENNTKLMIEELSTGIASKGYKYKSHYATILSWSRRRVTKLQER | -1.18
HMEEPEYELLRQAVLALPEKYRLPIHLYYYEEYSVREIAEILQRKESAVQTQLQRGREKIRRSLTEKGVS | -0.941
HMGTSRVQSILFDQSQWTINRAVHWLNTHHFISTKIDKTDKYLRFRQFDPNPDSHHATKRTSQGITFILE | ≥ 0.43
HMGLLGIYPNPVEGGSVRLLSDADLFGSRFELYDQSGKLVLNGFVTEGNFVSVKGISSGLYISVSYT | 0.00514
